Measured values reported in patent publication EP1514558A1 (Max-Planck-Gesellschaft zur Förderung der Wissenschaften …, dated 2005).

Target: HA-tagged MARK2, baculovirus-expressed in Sf9 cells (Rattus norvegicus (Rat), UniProt O08679 1-722)
Assay: cell-based or functional assay

Sequence of HA-tagged MARK2, baculovirus-expressed in Sf9 cells (O08679 other isoform, or with tags, fused parts or gaps limits assumed, form in doubt): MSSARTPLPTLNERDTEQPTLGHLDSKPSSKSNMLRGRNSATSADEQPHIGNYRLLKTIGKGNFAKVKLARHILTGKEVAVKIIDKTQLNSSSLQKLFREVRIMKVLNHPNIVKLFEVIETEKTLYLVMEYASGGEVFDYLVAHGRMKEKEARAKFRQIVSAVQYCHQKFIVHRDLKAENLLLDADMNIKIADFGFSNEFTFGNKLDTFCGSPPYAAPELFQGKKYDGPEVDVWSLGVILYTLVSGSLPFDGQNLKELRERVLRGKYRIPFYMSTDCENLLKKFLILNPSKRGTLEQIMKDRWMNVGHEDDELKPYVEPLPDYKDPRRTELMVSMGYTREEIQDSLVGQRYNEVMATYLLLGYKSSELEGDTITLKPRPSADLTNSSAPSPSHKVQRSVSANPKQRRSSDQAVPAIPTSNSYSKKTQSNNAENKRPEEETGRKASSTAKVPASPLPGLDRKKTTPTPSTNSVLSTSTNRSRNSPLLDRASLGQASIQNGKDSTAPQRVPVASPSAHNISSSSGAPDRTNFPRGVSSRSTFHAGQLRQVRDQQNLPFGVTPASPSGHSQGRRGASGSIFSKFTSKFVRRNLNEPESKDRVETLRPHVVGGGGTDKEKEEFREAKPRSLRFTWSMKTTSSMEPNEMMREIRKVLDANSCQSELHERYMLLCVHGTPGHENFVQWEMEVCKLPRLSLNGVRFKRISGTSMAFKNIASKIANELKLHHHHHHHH

B1: myc-tagged MARKK, baculovirus-expressed in Sf9 cells (enzyme, not shown: small tags and cut ends)
chain: MGHHHHHHHHHHSSGHIEGRHMPSTNRAGSLKDPEIAELFFKEDPEKLFTDLREIGHGSFGAVYFARDVRTNEVVAIKKMSYSGKQSTEKWQDIIKEVKFLQRIKHPNSIEYKGCYLREHTAWLVMEYCLGSASDLLEVHKKPLQEVEIAAITHGALQGLAYLHSHTMIHRDIKAGNILLTEPGQVKLADFGSASMASPANSFVGTPYWMAPEVILAMDEGQYDGKVDVWSLGITCIELAERKPPLFNMNAMSALYHIAQNESPTLQSNEWSDYFRNFVDSCLQKIPQDRPTSEELLKHMFVLRERPETVLIDLIQRTKDAVRELDNLQYRKMKKLLFQEAHNGPAVEAQEEEEEQDHGGGRTGTVNSVGSNQSIPSMSISASSQSSSVNSLPDASDDKSELDMMEGDHTVMSNSSVIHLKPEEENYQEEGDPRTRASDPQSPPQVSRHKSHYRNREHFATIRTASLVTRQMQEHEQDSELREQMSGYKRMRRQHQKQLMTLENKLKAEMDEHRLRLDKDLETQRNNFAAEMEKLIKKHQASMEKEAKVMANEEKKFQQHIQAQQKKELNSFLESQKREYKLRKEQLKEELNENQSTPKKEKQEWLSKQKENIQHFQAEEEANLLRRQRQYLELECRRFKRRMLLGRHNLEQDLVREELNKRQTQKDLEHAMLLRQHESMQELEFRHLNTIQKMRCELIRLQHQTELTNQLEYNKRRERELRRKHVMEVRQQPKSLKSKELQIKKQFQDTCKIQTRQYKALRNHLLETTPKSEHKAVLKRLKEEQTRKLAILAEQYDHSINEMLSTQALRLDEAQEAECQVLKMQLQQELELLNAYQSKIKMQAEAQHDRELRELEQRVSLRRALLEQKIEEEMLALQNERTERIRSLLERQAREIEAFDSESMRLGFSNMVLSNLSPEAFSHSYPGASSWSHNPTGGSGPHWGHPMGGTPQAWGHPMQGGPQPWGHPSGPMQGVPRGSSIGVRNSPQALRRTASGGRTEQGMSRSTSVTSQISNGSHMSYT
With B1 the “activity of immunoprecipitated MARK2 (phosphorylation of TR1) on co-expression in Sf9 cells” value was ~3 fold.
